Assay results: article PMC9716016

Substrate: N
Test: cells, lysate or membranes
Settings: labelled compound; (15NH4)2SO4 (60% 15N), 10 min; N-starved 3 d; qko background subtracted; whole-root uptake

B1: ScAMT2;1 (Saccharum hybrid cultivar SP80-3280) (protein)
chain: MAASGGAYAAQLPAVPEWLNKGDNAWQLTAATLVGIQSMPGLVVLYGSIVKKKWAVNSAFMALYAYASSLLVWVLVGFRMAFGERLLPFWGKAGVALSQGYLVRRASLSATAHGDTPRTEPLYPEATLVLFQFEFAAITLVLLAGSVLGRMNIKAWMAFTPLWLLFSYTVGAFSLWGGGFLYHWGVIDYSGGYVIHLSSGVAGFTAAYWVGPRLKSDRERFSPNNILLMIAGGGLLWMGWAGFNGGAPYAANIAASVAVLNTNVSAATSLLTWTCLDVIFFNKPSVIGAVQGMMTGLVCITPGAGLVQTWAAVIMGVFAGSVPWFTMMILHKKSALLMKVDDTLAVFHTHAVAGLLGGVLTGLLATPELLEIESPVPGLRGAFYGGGAQQVGKQLAGAAFVVAWNVAVTSLILFAIGLLVPLRMPDDQLMIGDDAAHGEEAYALWGDGEKFDATRHDLAARVGGGGMMDREGSADQRMSGMGARGVTIQL
Km: 90.17 µM
